Measured values as given in article PMC2100151.

Target: Human ASK1 catalytic (kinase) domain, T813A mutant (human) (UniProt Q99683)
Experiment: AUC; sedimentation velocity; 13 μM protein in 10 mM HEPES pH 7.4, 120 mM NaCl, 0.25% glycerol, 4°C, 40,000 rpm; c(s) and c(M) distributions (SEDFIT)

stoichiometry N: 2
Substance: Human ASK1 catalytic (kinase) domain, T813A mutant (from UniProt Q99683 659-951) (domain or fragment)
